Variants at the floor of the assay were thinned out.
B1: TPR 5TU (parent)
chain: GGAUCUUCUCGAUCUAACAAAAAAGACAAAUCUGCCACAAAGCUUGAGAGCAUCUUCGGAUGCAGAGGCGGCAGCCUUCGGUGGCGCGAUAGCGCCAACGUUCUCAACUAUGACACGCAAAACGCGUGCUCCGUUGAAUGGAGUUUAUCAUG

Variants of: B1
Test: polymerase ribozyme fitness, log enrichment relative to wild type (log ratio); higher = more active; in vitro selection for triplet polymerase activity
Outline: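 Mutant libraries of each subunit of a heterodimeric triplet polymerase ribozyme were built by PCR and transcribed. Each library went through one round of in vitro selection in triplicate: annealing with biotinylated primer, partner subunit and triplets, frozen incubation at −7 °C, gel excision of extended constructs, streptavidin-bead capture and RT-PCR. Input and output libraries were Illumina-sequenced; only genotypes with ≥10 input reads and ≥1 read per output were kept. Fitness is log2(genotype enrichment/wild-type enrichment), using inverse-variance-weighted replicate averages.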

With GGAUCUUCUCGAUCUAACAAAAAAGACAAAUCAGCCACAAAGCUUGAGAGCAUCUUCGGAUGCAGAGGCGGCAGCCUUCGGUAGCGCGAUAGCGUCAACGUUCUCAACUAUGACACGCAAAACGCGUGCUCCGUUGAAUGGAGUUUAUCACG [U33A G83A C95U U151C] as the variant, how does the “polymerase ribozyme fitness (log ratio)” value read?
Its value is ≤ -4.2.

For GGAUCUUCUCGAUCUAACAAAAAAGACAAAUCCGCCACAACGCUUGAGAGCAUCUUCGGAUGCAGAGGCGGCAGCCUUCGGUGGCGCGAUAGCGCCAACGUUCUCAACUAUGACACGCAAAACGCGUGCUCCGUUGAAUGGAGUUUAUCAUG [U33C A41C], which “polymerase ribozyme fitness (log ratio)” value is on record?
The value was -3.48.

For GGAUCUUCUCGAUCUAACAAAAAAGACAAAUCCGCCACAAAGCUUGAGAGCAUCUUCGGAUGCAGAGGCGGCAGCCUUCGGUGGCGCGAUAGCGCCAACGUUCUCAACUAUGACACGCAAAGCGCGGGCUCCGUUGAAUGGAGUUUAUCAUG [U33C A122G U127G], which “polymerase ribozyme fitness (log ratio)” value is on record?
Its value is ≤ -4.2.

Which “polymerase ribozyme fitness (log ratio)” value does the source give for GGAUCUUCUCGAUCUAACAAAAAAGACAAAUCAGCCACAAAGCGUGAGAGCAUCUUCGGAUGCAGAGGCGGCAGCCUUCGGUGGCGCGAUAGCGCCAACGUUCUCAGCUAUGACACGCAAAGCGCGUGCUCUGUUGAAUGGAGUUUAUCAUG [U33A U44G A107G A122G C132U] here?
The value was ≤ -4.2.

With GGAUCUUCUCGAUCUAACAAAAAAGACAAAUCAGCCACAAAGCUUGAGAGCAUCUUCGGAUGCAGAGGCGGCAGCCUUCGGUGGCGCGAUAGCGCCAACGUUCUCAACUAUGACACGCAAAACGCGUGCUCCGUUGAAUGGAGUCUAUCAUG [U33A U145C] as the variant, how does the “polymerase ribozyme fitness (log ratio)” value read?
The value was -4.

Which “polymerase ribozyme fitness (log ratio)” value does the source give for GGAUCUUCUCGAUCUAACAAAAAAGACAAAUCAGCCACAAAGCUUGAGAGCAUCUUCGGAUGCAGAGGCGGCAGCCUUCGGUGGCGCGAUAGCGCCAACGUUCUCAACUAUGACGCGCAAAACGCGUGCUCCGUUGAAGGGAGUUUAUCAUG [U33A A115G U139G] here?
The value was ≤ -4.2.

For GGAUCUUCUCGAUCUAACAAAAAAGACAAAUCCGCUACAAAGCUUGAGAGCAUCUACGGAUGCAGAGGCGGCAGCCUUCGGUGUCGCGACAGCGCCAACGUUCUCAACUCUGACACGCAAAACGCGUGCUCCGUUGAAUGGACUUUAUCAUG [U33C C36U U56A G84U U90C A110C G143C], which “polymerase ribozyme fitness (log ratio)” value is on record?
The value was ≤ -4.2.

With GGAUCUUCUCGAUCUAACAAAAAAGACAAAUCGGCCACAAAGCUUGAGUGCAUCUUCGGAUGCAGAGGCGGCAGCCUUCGGUGGCGCGAUGGCGCCAACGUUCUCAACUAUGACACGCAAAACGCGUGCUCCGUUGAAUGGAGUUUAUCAUA [U33G A49U A91G G152A] as the variant, how does the “polymerase ribozyme fitness (log ratio)” value read?
The value was ≤ -4.2.

With GGAUCUUCUCGAUCUAACAAAAAAGACAAAUCCGCCACAAAGCUUGAGAGCAUCUUCGGAUGCAGAGGCGCCAGCCUUCGGUGGCGCGAUAGCGCCAACGUUCUCAACUAUGACACGCAAAACGCGUGCUCCGUUGAAUGGAGUUUAUCAUG [U33C G71C] as the variant, how does the “polymerase ribozyme fitness (log ratio)” value read?
The value was ≤ -4.2.

Which “polymerase ribozyme fitness (log ratio)” value does the source give for GGAUCUUCUCGAUCUAACAAAAAAGACAAAUCAGCCACAAAGCUUGAGAGCAUCUACGGAUGCAGAGGCGGCAGCCUUCGGUGGCGCGAUAGCACCAACGUUCUCAACUAUGACACGCAAAACGCGUGCUCCGUUGAAUGGAGUUUAUCAUG [U33A U56A G94A] here?
The value was ≤ -4.2.

With GGAUCUUCUCGAUCUAACAAAAAAGACAAAUCAGCCACAAAGCUUGAGAGCAUCUUCGGCUGCAGAGGCGGCAACCUUCGGUGGCGCGAUAGCGCCAACGUUCUCAACUAUGACACGCAAAACGCGUGCUCCGUUGCAUGGAGUUUAUCUUG [U33A A60C G74A A137C A150U] as the variant, how does the “polymerase ribozyme fitness (log ratio)” value read?
Its value is ≤ -4.2.

For GGAUCUUCUCGAUCUAACAAAAAAGACAAAUCAGCCACAAAGCUAGAGAGCAUCUUCGGAUGCAGAGUCGGCAGCCUUCGGUGGCGAGAUAGCGCCAACGUUCUCAACUAUGACACGCAAAACGCGCGCUCCGUUGUAUGGAGUUUAUCAUG [U33A U45A G68U C87A U127C A137U], which “polymerase ribozyme fitness (log ratio)” value is on record?
The value was ≤ -4.2.

With GGAUCUUCUCGAUCUAACAAAAAAGACAAAUCAGCCACAAAGCUUGAGAGCAUCUUCGGAUGCAGAGGGGGCAGCCUUCGGUGGCGGGAUAGCGCCAACGUUCUCAACUAUGACACGCAAAACGCGUGCUCCGUUGAAUGGAGUUUAUCAUG [U33A C69G C87G] as the variant, how does the “polymerase ribozyme fitness (log ratio)” value read?
The value was ≤ -4.2.

Which “polymerase ribozyme fitness (log ratio)” value does the source give for GGAUCUUCUCGAUCUAACAAAAAAGACAAAUCAGCCACAAAGCUUGAGAACAACUUCGGAUGCAGAGGCGGCAGCCUUCGGUGGGGCGAUAGCGCGUACGUUCUCAACUAUGAGACGCAAAACGCGUGCUCCGUUGAAAGGAGUUUAUCAUG [U33A G50A U53A C85G C96G A97U C114G U139A] here?
Its value is ≤ -4.2.

Which “polymerase ribozyme fitness (log ratio)” value does the source give for GGAUCUUCUCGAUCUAACAAAAAAGACAAAUCCGCUACAAAGCUUGAGAGCAUAUUCGGAUGCAGAGGCGGUAGCCUUCGGUGUAGCGAUAGCGCCAACGUUCUCAACUAUGACACGCAAAACGCGUGCUCCGUUGAAUGGAGUUUAGCAUG [U33C C36U C54A C72U G84U C85A U148G] here?
Its value is ≤ -4.2.

With GGAUCUUCUCGAUCUAACAAAAAAGACAAAUCAGCCACAAAGUUUGAGAGCAUCUUCGGUUGCAGAGGCGGCAGCCUUCGGUGGCGCGAUAGAGCUAACGUUCUCAACUAUGACACGCAAAACGCGUGCUCCGUUGAAUGGAGUUUAUCACA [U33A C43U A60U C93A C96U U151C G152A] as the variant, how does the “polymerase ribozyme fitness (log ratio)” value read?
Its value is ≤ -4.2.

With GGAUCUUCUCGAUCUAACAAAAAAGACAAAUCAGCCACAAAGCUUGAGAGCAUCUUCGGAUGCAGAGGCGGUGGCCUUCGGUGGCGCGAUAGCGCCAACGUUCUCAACUAUGACACGCAAAACUCGUGCUCCGUUGAAUGGAGUUUAUCAUG [U33A C72U A73G G124U] as the variant, how does the “polymerase ribozyme fitness (log ratio)” value read?
The value was -3.23.

With GGAUCUUCUCGAUCUAACAAAAAAGACAAAUCAGCCACAAAGCUUGAGACCAUCUACGGAUGCAGAGGCGGCAGCAUUCGCUGGCGCGAUAGCGCCAACGUUCUCAACUAUGACACGCAAAACGCGUGCUCCGUUGAAUGGAGUUUAUCAUG [U33A G50C U56A C76A G81C] as the variant, how does the “polymerase ribozyme fitness (log ratio)” value read?
The value was ≤ -4.2.

Which “polymerase ribozyme fitness (log ratio)” value does the source give for GGAUCUUCUCGAUCUAACAAAAAAGACAAAUCAGCCACAAAGAUUGAGAGCAUCUUCGGAUGCAGAGGCGGCAGCUUUCGGUGGCGCGAUAACGCCAACGUUCUCAACUAUGACACUCAAAACGCGUGCUCCGUUGAAUGGAGUUUAUCAUG [U33A C43A C76U G92A G117U] here?
The value was -3.86.

— the RNAGym collection of RNA variant scans (doi:10.1073/pnas.2313332121)
